# Source: patent publication US20100297131A1
# What was measured:
# [1] = target: human erythrocytes, untreated (uncharacterized neuraminidase sensitive, trypsin resistant receptor on the surface of the erythrocyte) (human); assay: erythrocyte rosetting on transfected COS7 cells, normalized to 5% transfection efficiency
# [2] = target: neuraminidase-treated human erythrocytes (human); assay: erythrocyte rosetting on transfected COS7 cells, erythrocytes pretreated with neuraminidase
Substance,binding activity (%) [1],fold reduction of binding against untreated erythrocytes [2]
PfRH1 region IV (RIV) expressed on the surface of COS7 cells as a GFP fusion protein,< 10%,–
PfRH1 region III (RIII) expressed on the surface of COS7 cells as a GFP fusion protein,< 10%,–
PfRH1 region VI (RVI) expressed on the surface of COS7 cells as a GFP fusion protein,< 10%,–
PfRH1 region II (RII) expressed on the surface of COS7 cells as a GFP fusion protein (from UniProt P86148 334-1000),> 70%,10 fold
